Reference: patent US6824971 (SLOAN KETTERING INSTITUTE FOR CANCER RESEARCH, dated 2004)
Changes are numbered by the printed parent chain. Names may count otherwise.

T1: Recombinant Smad4/DPC4 C-terminal domain, residues 319-552 (human)
T1 chain: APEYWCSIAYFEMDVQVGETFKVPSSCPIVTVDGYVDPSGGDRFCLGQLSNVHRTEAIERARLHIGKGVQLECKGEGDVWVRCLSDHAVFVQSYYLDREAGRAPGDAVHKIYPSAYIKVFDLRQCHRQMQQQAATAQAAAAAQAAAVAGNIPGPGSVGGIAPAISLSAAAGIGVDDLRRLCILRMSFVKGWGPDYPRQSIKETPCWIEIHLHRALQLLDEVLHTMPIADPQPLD

B1: Recombinant Smad4/DPC4 C-terminal domain, residues 319-552, O70437 319-552 (protein)
chain: T1 chain
B2: Smad4/DPC4 C-terminal domain, amino acids 294-552 (other)
chain: MPPHPGHYWPVHNELAFQPPISNHPAPEYWCSIAYFEMDVQVGETFKVPSSCPIVTVDGYVDPSGGDRFCLGQLSNVHRTEAIERARLHIGKGVQLECKGEGDVWVRCLSDHAVFVQSYYLDREAGRAPGDAVHKIYPSAYIKVFDLRQCHRQMQQQAATAQAAAAAQAAAVAGNIPGPGSVGGIAPAISLSAAAGIGVDDLRRLCILRMSFVKGWGPDYPRQSIKETPCWIEIHLHRALQLLDEVLHTMPIADPQPLD
notes: Construct for mammalian cells (pCMV5), Flag- or HA-tagged; also called Smad4(C); Smad4 C domain
B3: Smad4/DPC4 C-terminal domain Arg361Cys (other)
chain: B2 chain with R68C
notes: HA-tagged; tumor-derived trimer interface mutation; also called R361C
B4: Smad4/DPC4 C-terminal domain Val370Asp (other)
chain: B2 chain with V77D
notes: HA-tagged; tumor-derived trimer interface mutation; also called V370D
B5: Smad4/DPC4 C-terminal domain Gly508Ser (other)
chain: B2 chain with G215S
notes: HA-tagged; also called G508S; developmental L3 loop mutation
B6: Smad4/DPC4 full-length Gly508Ser (other)
chain: MDNMSITNTPTSNDACLSIVHSLMCHRQGGESETFAKRAIESLVKKLKEKKDELDSLITAITTNGAHPSKCVTIQRTLDGRLQVAGRKGFPHVIYARLWRWPDLHKNELKHVKYCQYAFDLKCDSVCVNPYHYERVVSPGIDLSGLTLQSNAPSSMMVKDEYVHDFEGQPSLSTEGHSIQTIQHPPSNRASTETYSTPALLAPSESNATSTANFPNIPVASTSQPASILGGSHSEGLLQIASGPQPGQQQNGFTGQPATYHHNSTTTWTGSRTAPYTPNLPHHQNGHLQHHPPMPPHPGHYWPVHNELAFQPPISNHPAPEYWCSIAYFEMDVQVGETFKVPSSCPIVTVDGYVDPSGGDRFCLGQLSNVHRTEAIERARLHIGKGVQLECKGEGDVWVRCLSDHAVFVQSYYLDREAGRAPGDAVHKIYPSAYIKVFDLRQCHRQMQQQAATAQAAAAAQAAAVAGNIPGPGSVGGIAPAISLSAAAGIGVDDLRRLCILRMSFVKSWGPDYPRQSIKETPCWIEIHLHRALQLLDEVLHTMPIADPQPLD
notes: Full-length point mutant; also called G508S

How the values were obtained:
[1] = target: T1, Recombinant Smad4/DPC4 C-terminal …; experiment: crystal structure, trimer (three interfaces in total); conditions: remark: other sources report otherwise
[2] = target: the molecule itself; experiment: co-IP of differentially tagged constructs, COS cells
Source text: (§1) The full-length Smad4/DPC4 and Smad2, Smad4/DPC4-C-terminal domain encoding amino acids 294–552 (SEQ ID NO.:1) and the Smad2-C-terminal domain encoding amino acids 248–467 (SEQ ID NO.:3) were subcloned into the mammalian expression vector pCMV5. All Smad4/DPC4 point mutations were generated by a polymerase chain reaction (PCR)-based method and were confirmed by DNA sequencing. Mammalian COS-1 cells were transiently transfected with the indicated FLAG- and HA-tagged constructs by the DEAE-dextran method. Two days after transfection, cells were incubated with 200 pM TGF-β1 for one hour. Cells were lysed and subjected to immunoprecipitation followed by immunoblot as described. The wash buffers contained 150 mM NaCl for all immunoprecipitation experiments except for the homo-oligomerization assays of the full-length wild-type Smad4/DPC4 and point mutants, where 250 mM NaCl was employed to better differentiate the WT and mutant activities.
(§2) To assay for homo-oligomerization, mammalian COS-1 cells were transiently transfected with Flag-tagged wild-type Smad4/DPC4-C-terminal domain (WT) and HA-tagged WT or mutant constructs. For hetero-oligomerization, cells were transfected with Flag-tagged Smad2 C-terminal domain and HA-tagged Smad4/DPC4 C-terminal domain WT or mutant constructs together with constitutively active TGF-β type I receptor construct. […]

[3] = target: B2; experiment: co-IP, Flag-WT with HA-mutant, COS-1 cells
Source text: as §1, §2

[4] = target: B2; experiment: co-IP, Flag-WT C-terminal domain with HA-mutant, COS-1 cells
Source text: as §1, §2

[5] = target: the molecule itself; experiment: gel filtration of recombinant full-length protein
Procedure: The full-length Smad4/DPC4 proteins, both wild-type and point mutants, were overexpressed at room temperature in E.coli using a pET vector (Novagen). Smad4/DPC4 protein in the soluble fraction of the E. coli lysate was partially purified by ion exchange chromatography (Q-Sepharose) and was applied to a gel filtration column (Superdex200) in 50 mM Tris, 200 mM NaCl, 5 mM DTT, pH 8.0. Aliquots from the fractions corresponding to molecular weight standards between 440 kDa and 25 kDa were taken for immunoblots with a rabbit polyclonal antibody raised against the Smad4/DPC4-C-terminal domain. The results were visualized with the ECL Western analysis and detection system (Amersham). In addition, the WT full-length Smad4/DPC4 was also cloned as a GST-fusion protein and purified to near homogeneity over a glutathione column. The fusion protein was then cleaved with Thrombin and the. Smad4/DPC4 protein was futher purified by anion-exchange chromatography (Source 15Q column).
The fractions were visualized with Coomassie staining. […] Gel filtration fractions of partially purified wild-type and mutant Smad4/DPC4 proteins were analyzed by immunoblots with anti-Smad4/DPC4 antibody.

Binder: B1
buried surface area [1]: 4800 Å^2

Binder: B2
binding result [2]: binds

Binder: B3
binding result [3]: no binding

Binder: B4
binding result [3]: no binding

Binder: B5
binding result [4]: binds

Binder: B6
binding result [5]: binds
